The series deals with the molecule itself. Put plainly: X-ray crystal structure (self-association of subunits). The procedure: The crystals were moved into 0.15M sodium citrate buffer (pH 5.6) containing 25% glycerol and 1.5M ammonium phosphate, and rapidly cooled to −173° C. by blowing nitrogen gas. The X-ray diffraction data of PtALD native crystals was collected using an X-ray diffractometer R-AXIS V++ (Rigaku Co., Ltd.) at the Photon Factory Beamline 6B of the High Energy Accelerator Research Organization (Tsukuba, Japan). The X-ray wavelength was fixed at 1.0 angstrom and the distance from the crystal to an imaging plate detector was 180 mm. Exposure time and an oscillation angle per one imaging plate frame were 120 sec and 0.8°, respectively, and the data for 150 frames was collected. In the crystallographic parameters, the space group was P6₃22, and the lattice constants were a=94.38 angstrom and c=111.49 angstrom. The asymmetric unit contains one aldolase molecule, and the water content of the crystal was 60%. The crystal was diffracted to approximately 1.5 angstrom resolution. The data processing was made with a program Crystal Clear (Rigaku Co., Ltd.). The Rmerge, which indicates the quality of the data, was 0.097 between 40.0-1.5 angstrom resolution, and 0.260 between 1.55-1.50 angstrom resolution in the most outer shell. The completeness of the data was 99.2% between 40.0-1.5 angstrom resolution, and 99.9% between 1.55-1.50 angstrom resolution in the most outer shell. […]

B1: aldolase derived from Pseudomonas taetrolens ATCC4683 (PtALD), wild-type (enzyme)
chain: MSLPGSRIYPSPPQAPRSLLDAFQNVVTPHISDNLGRHIGARGLTRYNHTGKLVGTALTVKTRPGDNLYIYKALTLIEPGHVLVIDAQGDATNAVIGELIKLYAQQRGCVGFVVDGAIRDVASFEDTPCYARSVVHCGPYKSGPGEINVPVSIGGMIINPGDIIVGDEDGLVAFSPDHAEQVLVKAREHDAHEQQVKAEIATGAIDQSWLDKVLEKAGLAN
notes: It was purified and crystallised; The asymmetric unit contains one subunit; also called IHOG aldolase; recombinant PtALD
Consider B1, for which the binding result is given as “binds”.
